Columns and labels:
[1] = target: human FcγRIIIa-Phe158, soluble ectodomain (human) (UniProt P08637); experiment: SPR; FcγRIIIa ectodomains immobilised on Series S CM5 chips by amine coupling (Phe158 560 RU, Val158 260 RU); Biacore T200; antibody injected (Rituxan 21,870-30 nM, recombinant mAb 810-3.333 nM, threefold dilutions); blank surface and buffer subtracted; 1:1 Langmuir binding model
[2] = target: human FcγRIIIa-Val158, soluble ectodomain (human); experiment: as above

UniProt P08637, sequence (P08637 17-208): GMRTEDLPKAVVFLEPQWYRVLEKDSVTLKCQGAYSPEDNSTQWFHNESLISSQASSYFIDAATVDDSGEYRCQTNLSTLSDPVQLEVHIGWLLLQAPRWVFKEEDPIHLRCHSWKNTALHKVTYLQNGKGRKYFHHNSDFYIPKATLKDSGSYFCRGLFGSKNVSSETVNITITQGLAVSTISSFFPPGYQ

Rituxan (antibody)
Kd [1]: 6.8 µM | koff [1]: 0.17 s⁻¹ | kon [1]: 25000 M⁻¹ s⁻¹ | Kd [2]: 0.94 µM | koff [2]: 0.043 s⁻¹ | kon [2]: 46000 M⁻¹ s⁻¹
